# Publication PMC10846947 (Journal of Alzheimer's disease : JAD, 2022)
# What was measured:
# [1] = mouse, in vivo
# [2] = mouse, in vivo; remark: listed apart in the source
# [3] = mouse, in vivo; remark: listed apart in the source
# [4] = mouse, in vivo; remark: listed apart in the source
# [5] = mouse, in vivo, iv
Substance,"PS product in the whole brain, WT versus APP/PS1 mice [1]","PS product in the whole brain, lower in APP/PS1 mice compared to WT mice [1]",decrease in PS values at 52 weeks [1],increase in plasma AUC at 52 weeks [2],plasma AUC of 125I-Aβ40 relative to 125I-Aβ42 [2],decrease in PS values in various brain regions at 52 weeks [3],decrease in PS values at various brain regions at 24 weeks [1],increase in PS values in various brain regions at 52 weeks [3],decrease in PS products at various brain regions at 24 weeks compared to 8 weeks [4],decrease in brain influx clearance (Ki) at 104 weeks compared to 12 weeks [5]
"^125I-Aβ40: custom synthesized amyloid-β 40 peptide, soluble form, radiolabeled with 125I by the chloramine-T procedure",no differences,~ 1.5 fold,~ 1.5 fold,~ 7 fold,~ 12 fold,~ 4 fold,–,–,–,–
"^125I-Aβ42: custom synthesized amyloid-β 42 peptide, soluble form, radiolabeled with 125I by the chloramine-T procedure",no significant differences,–,–,–,–,–,~ 1.5 fold,~ 1.5 fold,–,–
^125I-insulin: human insulin (Sigma-Aldrich) radiolabeled with 125I by the chloramine-T procedure,–,–,–,–,–,–,–,–,~ 5 fold,~ 2 fold
